# Tests used:
# [1] = molecular target: PLA2 (phospholipase A2) from Crotalus durissus cascavella rattlesnake venom (Crotalus durissus cascavella)
# [2] = molecular target: PLA2 (phospholipase A2) from Crotalus durissus cascavella rattlesnake venom (Crotalus durissus cascavella); remark: listed apart in the source
substance,measurement,setting,value
"BTL-2, isolectin from the red marine alga Bryothamnion triquetrum (natural protein)","aggregation of washed human platelets induced by PLA2 after 30 min incubation with BTL-2, at 1 μg and 3 μg (72.7% and 48.8%), compared to PLA2 alone",[1],72.7%
same,enzymatic activity of PLA2 on 4-nitro-3-octanoyloxy-benzoic acid after incubation with BTL-2; increase against PLA2 alone,[2],23%
